Target: T1, UBP (Sulfolobus islandicus REY15A, UniProt F0NFD3 1-111)
T1 sequence: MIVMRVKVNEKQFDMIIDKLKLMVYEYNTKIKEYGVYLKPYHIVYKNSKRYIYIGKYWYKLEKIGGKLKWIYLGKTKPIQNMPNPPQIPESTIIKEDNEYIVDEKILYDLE
Experiment: thermal melting protection; 55-65 C, 50 mM NaCl; EMSA: 50 mM K-acetate, 20 mM Tris-acetate, 10 mM Mg-acetate, 1 mM DTT, pH 7.9, 5-10% glycerol, 70 mM NaCl, 800 ng salmon sperm DNA per 10 ul, room temperature 10 min; footprinting same buffer, 4% glycerol, 8000 ng salmon sperm DNA; pull-down 25 mM HEPES pH 7.5, 150 mM NaCl, 10 mM MgCl, 100 uM ZnCl, 10 mM DTT, 48 C
Conditions: protein: recombinant; tags: MBP tag removed by Factor Xa; 3 extra vector residues at N-terminus; chain copies: 2; label: 5'-32P; 40 bp duplex with 10 nt C overhangs at 5' and 3' of strand 2

B1: 40 bp duplex for melting (P19/P20) (dsDNA)
DNA 1: ATAATTAGATAACCATTATACAAAAGAATTGTATAAGAAT
DNA 2: CCCCCCCCCCATTCTTATACAATTCTTTTGTATAATGGTTATCTAATTATCCCCCCCCCC
Does B1 bind?
Result: binds

— paper PMC12141716, “An archaeal nucleoid-associated protein binds an essential motif in DNA replication origins” (Nature Communications, 2025)
